# According to IntAct's records for PubMed 15148308:
# B1: Docking protein 1 (Mus musculus), P97465 (parent)
# chain: MDGAVMEGPLFLQSQRFGTKRWRKTWAVLYPASPHGVARLEFFDHKGSSSRGGRGGSRRLDCKMIRLAECVSVVPVTVESPPEPGAVAFRLDTAQRSHLLAADAVSSTAWVQTLCRTAFPKGGWALAQTENQPKFSALEMLENSLYSPTWEGSQFWVTSQKTEASERCGLQGSYILRVEAEKLTLLTLGAQSQILEPLLFWPYTLLRRYGRDKVMFSFEAGRRCPSGPGTFTFQTSQGNDIFQAVEAAIQQQKAQGKVGQAQDILRTDSHDGETEGKTVPPPVPQDPLGSPPALYAEPLDSLRIPPGPSQDSVYSDPLGSTPAGAGEGVHSKKPLYWDLYGHVQQQLLKTKLTDSKEDPIYDEPEGLAPAPPRGLYDLPQEPRDAWWCQARLKEEGYELPYNPATDDYAVPPPRSPKPAPAPKPQGLILPESGTTRGSGSKGFSSDTALYSQVQKSGTSGAWDCGLSKVGNDRAGVKSEGST
# Variants of: B1
# Conditions: with nck1_mouse Nck1, Q99M51
row,Variant,effect of a mutation on the interaction
1,MDGAVMEGPLFLQSQRFGTKRWRKTWAVLYPASPHGVARLEFFDHKGSSSRGGRGGSRRLDCKMIRLAECVSVVPVTVESPPEPGAVAFRLDTAQRSHLLAADAVSSTAWVQTLCRTAFPKGGWALAQTENQPKFSALEMLENSLYSPTWEGSQFWVTSQKTEASERCGLQGSYILRVEAEKLTLLTLGAQSQILEPLLFWPYTLLRRYGRDKVMFSFEAGRRCPSGPGTFTFQTSQGNDIFQAVEAAIQQQKAQGKVGQAQDILRTDSHDGETEGKTVPPPVPQDPLGSPPALYAEPLDSLRIPPGPSQDSVYSDPLGSTPAGAGEGVHSKKPLYWDLYGHVQQQLLKTKLTDSKEDPIFDEPEGLAPAPPRGLYDLPQEPRDAWWCQARLKEEGYELPYNPATDDYAVPPPRSPKPAPAPKPQGLILPESGTTRGSGSKGFSSDTALYSQVQKSGTSGAWDCGLSKVGNDRAGVKSEGST [Y361F],disrupting interaction
